Here are results for 42 molecules from patent US20260242478A1 (published 2026).

Test [1] has as its target Anti-CD28 Fab (SEQ ID NOs: 696, 697). The experiment in a line: phage binding ELISA; Fab-coated wells pre-incubated with CD28 antigen as competitor. (An ELISA detects its analyte on a solid surface through an enzyme-linked reagent.)
Target sequence in this assay (VH, as listed by the source, chain 1 of 2): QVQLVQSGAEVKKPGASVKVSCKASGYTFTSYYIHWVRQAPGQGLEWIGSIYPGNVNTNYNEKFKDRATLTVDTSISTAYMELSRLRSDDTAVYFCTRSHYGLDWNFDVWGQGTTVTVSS
Target sequence in this assay (VL, as listed by the source, chain 2 of 2): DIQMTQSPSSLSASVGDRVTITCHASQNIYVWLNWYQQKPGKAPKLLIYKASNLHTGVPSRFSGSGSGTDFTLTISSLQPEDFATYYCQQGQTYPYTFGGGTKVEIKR
Description: (§1) Clonal phage were harvested as crude supematants and screened via standard ELISAs. […] Prior to the addition of clonal phage, wells were incubated with blocking buffer and CD28 antigen or blocking buffer alone. Without washing or aspirating, clonal phage supematants were then added to the wells and incubated for a short time. Wells were then washed followed by detection of bound phage using a horse radish conjugated anti-M13 antibody.
For test [2] the target is unchanged. The test is described as follows: phage binding ELISA; biotinylated Fab on neutravidin plate, bound phage detected with anti-M13-HRP.
Target sequence in this assay (VH, as listed by the source, chain 1 of 2): as the sequence (VH, as listed by the source, chain 1 of 2) above
Target sequence in this assay (VL, as listed by the source, chain 2 of 2): as the sequence (VL, as listed by the source, chain 2 of 2) above
Description: as §1
Test [3] has as its target T1, Anti-CD28 Fab (SEQ ID NOs: 696, 697).
T1 construct: Biotinylated and captured on neutravidin coated plates in the phage ELISA
The test is described as follows: phage binding ELISA; biotinylated anti-CD28 Fab on neutravidin plate, clonal phage detected with anti-M13-HRP.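 Further: crude clonal phage supernatants added briefly to wells preincubated in blocking buffer with or without CD28 antigen, then washed before detection.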
T1 sequence (VH, as listed by the source, chain 1 of 2): as the sequence (VH, as listed by the source, chain 1 of 2) above
T1 sequence (VL, as listed by the source, chain 2 of 2): as the sequence (VL, as listed by the source, chain 2 of 2) above
Description: (§2) Clonal phage were harvested as crude supematants and screened via standard ELISAs. […] Prior to the addition of clonal phage, wells were incubated with blocking buffer and CD28 antigen or blocking buffer alone. Without washing or aspirating, clonal phage supematants were then added to the wells and incubated for a short time. Wells were then washed followed by detection of bound phage using a horse radish conjugated anti-M13 antibody. Clonal phage of interest were then sent for sequence analysis.

Test [4] has the same target. The experiment in a line: phage binding ELISA on captured anti-CD28 Fab; competitor: CD28 antigen pre-incubated in the well.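 Further: clonal phage supernatants added briefly to wells preblocked with or without CD28, bound phage detected through an HRP-linked anti-M13 antibody, wells with blocking buffer alone as comparison.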
Target sequence in this assay (VH, as listed by the source, chain 1 of 2): as the sequence (VH, as listed by the source, chain 1 of 2) above
Target sequence in this assay (VL, as listed by the source, chain 2 of 2): as the sequence (VL, as listed by the source, chain 2 of 2) above
Description: as §2
The target of test [5] is T2, Anti-CD28 Fab (SEQ ID NOs: 696, 697).
T2 construct: In the phage ELISA the Fab was biotinylated and captured on neutravidin coated plates
The experiment in a line: phage ELISA; biotinylated anti-CD28 Fab on neutravidin plate, bound phage detected with anti-M13-HRP.
T2 sequence (VH, as listed by the source, chain 1 of 2): as the sequence (VH, as listed by the source, chain 1 of 2) above
T2 sequence (VL, as listed by the source, chain 2 of 2): as the sequence (VL, as listed by the source, chain 2 of 2) above
Description: as §1

The target is the same in test [6]. The test is described as follows: phage ELISA on captured anti-CD28 Fab; wells pre-incubated with CD28 antigen as competitor.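 Further: clonal phage from crude supernatants added to wells pretreated with blocking buffer with or without CD28, bound phage read by ELISA with HRP-conjugated anti-M13 antibody.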
Target sequence in this assay (VH, as listed by the source, chain 1 of 2): as the sequence (VH, as listed by the source, chain 1 of 2) above
Target sequence in this assay (VL, as listed by the source, chain 2 of 2): as the sequence (VL, as listed by the source, chain 2 of 2) above
Description: as §2

B1: Phage-1600 (peptide)
peptide: TCSAGAGYPWPTCL
For the molecule B1, in test [1], the “Anti-CD28 Fab signal in the presence of CD28” value turned out to be 0.06. In addition, the “Anti-CD28 Fab signal” value in test [2] worked out at 1.36.

B2: Phage-1560 (peptide)
peptide: SCSAGATYEWPYCF
notes: tested as crude phage supernatant
As to B2, the “Anti-CD28 Fab signal (phage binding ELISA)” value in test [3] stood at 1.47. For the same molecule, the “Anti-CD28 Fab signal in the presence of CD28 (phage binding ELISA)” value in test [4] is 0.06.

B3: Phage-1616 (peptide)
peptide: TCAAGVPYKWPPCL
In the case of B3, in test [5], the “Phage binding ELISA, Anti-CD28 Fab signal” value came out at 1.29. Moreover, in test [6], the “Phage binding ELISA, Anti-CD28 Fab signal in the presence of CD28” value was 0.06.

B4: Phage-1592 (peptide)
peptide: SCAAGAAWGWPACF
Consider B4, for which the “Anti-CD28 Fab signal in the presence of CD28” value in test [1] was 0.09. In addition, the “Anti-CD28 Fab signal” value in test [2] was 1.39.

B5: Phage-1617 (peptide)
peptide: SCAAGATYTWPFCL
Take B5: in test [5], the “Phage binding ELISA, Anti-CD28 Fab signal” value turned out to be 1.29. In test [6], the “Phage binding ELISA, Anti-CD28 Fab signal in the presence of CD28” value worked out at 0.07.

B6: Phage-1550 (peptide)
peptide: QCAAGAMWTWPVCF
notes: as for B2
With B6, the “Anti-CD28 Fab signal (phage binding ELISA)” value in test [3] amounted to 1.5. In test [4], the “Anti-CD28 Fab signal in the presence of CD28 (phage binding ELISA)” value turned out to be 0.07.

B7: Phage-1549 (peptide)
peptide: TCAAGATYSWPDCF
notes: as for B2
As for B7, in test [3], the “Anti-CD28 Fab signal (phage binding ELISA)” value was found to be 1.51. Further, the “Anti-CD28 Fab signal in the presence of CD28 (phage binding ELISA)” value in test [4] was found to be 0.06.

B8: Phage-1556 (peptide)
peptide: TCAAGASWEWPACL
notes: as for B2
Consider B8, for which, in test [3], the “Anti-CD28 Fab signal (phage binding ELISA)” value turned out to be 1.48. Moreover, in test [4], the “Anti-CD28 Fab signal in the presence of CD28 (phage binding ELISA)” value was 0.08.

B9: Phage-1554 (peptide)
peptide: TCAAGVHFGWPLCF
notes: as for B2
Regarding B9, the “Anti-CD28 Fab signal (phage binding ELISA)” value in test [3] turned out to be 1.49. For the same molecule, in test [4], the “Anti-CD28 Fab signal in the presence of CD28 (phage binding ELISA)” value was determined as 0.07.

B10: Phage-1594 (peptide)
peptide: SCSAFFHFHWPACL
As to B10, the “Anti-CD28 Fab signal in the presence of CD28” value in test [1] was determined as 0.06. Moreover, in test [2], the “Anti-CD28 Fab signal” value was found to be 1.38.

B11: Phage-1557 (peptide)
peptide: TCAAGAMYQWPECF
notes: as for B2
As to B11, the “Anti-CD28 Fab signal (phage binding ELISA)” value in test [3] is 1.48. Further, the “Anti-CD28 Fab signal in the presence of CD28 (phage binding ELISA)” value in test [4] was determined as 0.06.

B12: Phage-1547 (peptide)
peptide: SCAAGAHYKWPVCI
notes: as for B2
For the molecule B12, the “Anti-CD28 Fab signal (phage binding ELISA)” value in test [3] was 1.51. Besides, in test [4], the “Anti-CD28 Fab signal in the presence of CD28 (phage binding ELISA)” value came out at 0.06.

B13: Phage-1604 (peptide)
peptide: PCAAGAHYTWPTCL
For the molecule B13, in test [1], the “Anti-CD28 Fab signal in the presence of CD28” value is 0.07. The “Anti-CD28 Fab signal” value in test [2] came out at 1.34.

B14: Phage-1606 (peptide)
peptide: TCSAGAHYSWPKCF
Turning to B14, the “Phage binding ELISA, Anti-CD28 Fab signal” value in test [5] is 1.33. The “Phage binding ELISA, Anti-CD28 Fab signal in the presence of CD28” value in test [6] turned out to be 0.07.

B15: Phage-1595 (peptide)
peptide: TCSAGANWVWPLCL
With B15, the “Anti-CD28 Fab signal in the presence of CD28” value in test [1] came out at 0.07. The “Anti-CD28 Fab signal” value in test [2] amounted to 1.38.

B16: Phage-1613 (peptide)
peptide: SCSAGAMYTWPTCL
B16: the “Phage binding ELISA, Anti-CD28 Fab signal” value in test [5] was 1.31. Also, the “Phage binding ELISA, Anti-CD28 Fab signal in the presence of CD28” value in test [6] came to 0.08.

B17: Phage-1603 (peptide)
peptide: TCSAGALWEWPMCF
Regarding B17, the “Anti-CD28 Fab signal in the presence of CD28” value in test [1] was 0.06. Moreover, the “Anti-CD28 Fab signal” value in test [2] amounted to 1.35.

B18: Phage-1612 (peptide)
peptide: TCAAGATYEWPSCL
With B18, in test [5], the “Phage binding ELISA, Anti-CD28 Fab signal” value came to 1.32. For the same molecule, the “Phage binding ELISA, Anti-CD28 Fab signal in the presence of CD28” value in test [6] came out at 0.09.

B19: Phage-1597 (peptide)
peptide: SCAAGATYGWPECF
Regarding B19, the “Anti-CD28 Fab signal in the presence of CD28” value in test [1] was 0.07. In test [2], the “Anti-CD28 Fab signal” value was 1.36.

B20: Phage-1593 (peptide)
peptide: TCAAGATWLWPVCL
As for B20, in test [1], the “Anti-CD28 Fab signal in the presence of CD28” value was 0.08. Besides, the “Anti-CD28 Fab signal” value in test [2] amounted to 1.39.

B21: Phage-1553 (peptide)
peptide: NCSAGATWPWPMCF
notes: as for B2
As for B21, the “Anti-CD28 Fab signal (phage binding ELISA)” value in test [3] is 1.49. In addition, the “Anti-CD28 Fab signal in the presence of CD28 (phage binding ELISA)” value in test [4] was determined as 0.1.

B22: Phage-1559 (peptide)
peptide: TCSAGATYKWPVCL
notes: as for B2
As for B22, in test [3], the “Anti-CD28 Fab signal (phage binding ELISA)” value was 1.47. For the same molecule, the “Anti-CD28 Fab signal in the presence of CD28 (phage binding ELISA)” value in test [4] worked out at 0.06.

B23: Phage-1607 (peptide)
peptide: SCAAGAHYPWPECL
Take B23: the “Phage binding ELISA, Anti-CD28 Fab signal” value in test [5] is 1.32. The “Phage binding ELISA, Anti-CD28 Fab signal in the presence of CD28” value in test [6] was determined as 0.05.

B24: Phage-1552 (peptide)
peptide: PCAAGAMWAWPYCL
notes: as for B2
Consider B24, for which the “Anti-CD28 Fab signal (phage binding ELISA)” value in test [3] came to 1.49. Moreover, the “Anti-CD28 Fab signal in the presence of CD28 (phage binding ELISA)” value in test [4] came out at 0.05.

B25: Phage-1599 (peptide)
peptide: LCSAGAMWEWPLCL
Take B25: the “Anti-CD28 Fab signal in the presence of CD28” value in test [1] worked out at 0.07. For the same molecule, in test [2], the “Anti-CD28 Fab signal” value was determined as 1.36.

B26: Phage-1615 (peptide)
peptide: QCSAGATYAWPFCL
Regarding B26, in test [5], the “Phage binding ELISA, Anti-CD28 Fab signal” value was found to be 1.29. Also, the “Phage binding ELISA, Anti-CD28 Fab signal in the presence of CD28” value in test [6] worked out at 0.08.

B27: Phage-1558 (peptide)
peptide: TCAAGAHYTWPTCL
notes: as for B2
Consider B27, for which the “Anti-CD28 Fab signal (phage binding ELISA)” value in test [3] is 1.47. Moreover, the “Anti-CD28 Fab signal in the presence of CD28 (phage binding ELISA)” value in test [4] was 0.07.

B28: Phage-1610 (peptide)
peptide: SCAAGAMWEWPKCF
In the case of B28, the “Phage binding ELISA, Anti-CD28 Fab signal” value in test [5] turned out to be 1.32. In test [6], the “Phage binding ELISA, Anti-CD28 Fab signal in the presence of CD28” value worked out at 0.09.

B29: Phage-1601 (peptide)
peptide: TCSAGAAWTWPLCF
Turning to B29, the “Anti-CD28 Fab signal in the presence of CD28” value in test [1] was 0.06. Moreover, the “Anti-CD28 Fab signal” value in test [2] is 1.36.

B30: Phage-1591 (peptide)
peptide: TCSAGAEYTWPLCF
Consider B30, for which the “Anti-CD28 Fab signal in the presence of CD28” value in test [1] is 0.08. Besides, the “Anti-CD28 Fab signal” value in test [2] stood at 1.4.

B31: Phage-1602 (peptide)
peptide: TCSAGAAYEWPECF
With B31, the “Anti-CD28 Fab signal in the presence of CD28” value in test [1] was found to be 0.06. For the same molecule, the “Anti-CD28 Fab signal” value in test [2] stood at 1.36.

B32: Phage-1618 (peptide)
peptide: RCAAVFSYTWPPCL
As for B32, the “Phage binding ELISA, Anti-CD28 Fab signal” value in test [5] came to 1.29. Further, the “Phage binding ELISA, Anti-CD28 Fab signal in the presence of CD28” value in test [6] turned out to be 0.07.

B33: Phage-1548 (peptide)
peptide: ICAAGFIWSWPACF
notes: as for B2
Regarding B33, the “Anti-CD28 Fab signal (phage binding ELISA)” value in test [3] was 1.51. For the same molecule, in test [4], the “Anti-CD28 Fab signal in the presence of CD28 (phage binding ELISA)” value came to 0.08.

B34: Phage-1555 (peptide)
peptide: TCAAGATYTWPTCF
notes: as for B2
As for B34, the “Anti-CD28 Fab signal (phage binding ELISA)” value in test [3] was 1.48. Further, the “Anti-CD28 Fab signal in the presence of CD28 (phage binding ELISA)” value in test [4] came to 0.05.

B35: Phage-1611 (peptide)
peptide: SCADGAIWEWPWCF
As for B35, the “Phage binding ELISA, Anti-CD28 Fab signal” value in test [5] was 1.32. Besides, the “Phage binding ELISA, Anti-CD28 Fab signal in the presence of CD28” value in test [6] stood at 0.07.

B36: Phage-1598 (peptide)
peptide: SCAAGATWAWPACL
On to B36, for which the “Anti-CD28 Fab signal in the presence of CD28” value in test [1] came out at 0.06. Moreover, the “Anti-CD28 Fab signal” value in test [2] is 1.36.

B37: Phage-1608 (peptide)
peptide: SCAEVFNYVWPFCF
Take B37: the “Phage binding ELISA, Anti-CD28 Fab signal” value in test [5] was found to be 1.32. In test [6], the “Phage binding ELISA, Anti-CD28 Fab signal in the presence of CD28” value amounted to 0.07.

B38: Phage-1609 (peptide)
peptide: TCAAGAAYTWPVCF
Regarding B38, the “Phage binding ELISA, Anti-CD28 Fab signal” value in test [5] came to 1.32. Moreover, the “Phage binding ELISA, Anti-CD28 Fab signal in the presence of CD28” value in test [6] was 0.08.

B39: Phage-1605 (peptide)
peptide: SCSAGATYTWPACL
Take B39: the “Phage binding ELISA, Anti-CD28 Fab signal” value in test [5] was 1.34. Further, in test [6], the “Phage binding ELISA, Anti-CD28 Fab signal in the presence of CD28” value came to 0.07.

B40: Phage-1551 (peptide)
peptide: TCAAGAHYLWPHCL
notes: as for B2
As for B40, the “Anti-CD28 Fab signal (phage binding ELISA)” value in test [3] is 1.5. For the same molecule, the “Anti-CD28 Fab signal in the presence of CD28 (phage binding ELISA)” value in test [4] was determined as 0.12.

B41: Phage-1596 (peptide)
peptide: TCSAGAHWVWPYCL
For B41, the “Anti-CD28 Fab signal in the presence of CD28” value in test [1] was 0.09. Also, in test [2], the “Anti-CD28 Fab signal” value is 1.37.

B42: Phage-1614 (peptide)
peptide: LCAAGAAWEWPMCF
Regarding B42, the “Phage binding ELISA, Anti-CD28 Fab signal” value in test [5] was 1.3. In addition, the “Phage binding ELISA, Anti-CD28 Fab signal in the presence of CD28” value in test [6] is 0.06.
